Results: patent US20260317437 (published 2026)
Where a chain is given by its changes, count along the chain named. Names may count otherwise.

B1: VH Y30Q (antibody, V domains shown)
VH: EVQLVESGGGLVQPGGSLRLSCAASGFNIQYNYIHWVRQAPGKGLEWVAEFSPYSGSTYYADSVKGRFTISADTSKNTAYLQMNSLRAEDTAVYYCARSAAIVDWYDYFKGFDYWGQGTLVTVSS
VL: DIQMTQSPSSLSASVGDRVTITCRASQSVSSAVAWYQQKPGKAPKLLIYSASSLYSGVPSRFSGSRSGTDFTLTISSLQPEDFATYYCQQYGSYLYTFGQGTKVEIK
B2: VL Y94F (antibody, V domains shown)
VH: B1 VH with Q30Y
VL: B1 VL with Y94F
B3: VL Y94L (antibody, V domains shown)
VH: B1 VH with Q30Y
VL: B1 VL with Y94L
B4: VH Y30R (antibody, V domains shown)
VH: B1 VH with Q30R
VL: B1 VL
B5: VL Y94E (antibody, V domains shown)
VH: B1 VH with Q30Y
VL: B1 VL with Y94E
B6: VL S93H (antibody, V domains shown)
VH: B1 VH with Q30Y
VL: B1 VL with S93H
B7: VH Y30I (antibody, V domains shown)
VH: B1 VH with Q30I
VL: B1 VL
B8: VL Y94Q (antibody, V domains shown)
VH: B1 VH with Q30Y
VL: B1 VL with Y94Q
B9: VH Y30K (antibody, V domains shown)
VH: B1 VH with Q30K
VL: B1 VL
B10: VH Y100bA (antibody, V domains shown)
VH: B1 VH with Q30Y, Y106A
VL: B1 VL
B11: VL S93F (antibody, V domains shown)
VH: B1 VH with Q30Y
VL: B1 VL with S93F
B12: VL Y91S (antibody, V domains shown)
VH: B1 VH with Q30Y
VL: B1 VL with Y91S
B13: VL Y91Q (antibody, V domains shown)
VH: B1 VH with Q30Y
VL: B1 VL with Y91Q
B14: VL Y91W (antibody, V domains shown)
VH: B1 VH with Q30Y
VL: B1 VL with Y91W
B15: VL Y94D (antibody, V domains shown)
VH: B1 VH with Q30Y
VL: B1 VL with Y94D
B16: VH Y31V (antibody, V domains shown)
VH: B1 VH with Q30Y, Y31V
VL: B1 VL
B17: VL S93Q (antibody, V domains shown)
VH: B1 VH with Q30Y
VL: B1 VL with S93Q
B18: VH Y30D (antibody, V domains shown)
VH: B1 VH with Q30D
VL: B1 VL
B19: VH Y30F (antibody, V domains shown)
VH: B1 VH with Q30F
VL: B1 VL
B20: VL S93T (antibody, V domains shown)
VH: B1 VH with Q30Y
VL: B1 VL with S93T
B21: VH Y30A (antibody, V domains shown)
VH: B1 VH with Q30A
VL: B1 VL
B22: VH Y31T (antibody, V domains shown)
VH: B1 VH with Q30Y, Y31T
VL: B1 VL
B23: VH Y30L (antibody, V domains shown)
VH: B1 VH with Q30L
VL: B1 VL
B24: VL Y91K (antibody, V domains shown)
VH: B1 VH with Q30Y
VL: B1 VL with Y91K
B25: VH Y31F (antibody, V domains shown)
VH: B1 VH with Q30Y, Y31F
VL: B1 VL
B26: VL S93N (antibody, V domains shown)
VH: B1 VH with Q30Y
VL: B1 VL with S93N
B27: VH Y30V (antibody, V domains shown)
VH: B1 VH with Q30V
VL: B1 VL
B28: VH V99K (antibody, V domains shown)
VH: B1 VH with Q30Y, V103K
VL: B1 VL
B29: VL Y91F (antibody, V domains shown)
VH: B1 VH with Q30Y
VL: B1 VL with Y91F
B30: VL Y91E (antibody, V domains shown)
VH: B1 VH with Q30Y
VL: B1 VL with Y91E
B31: VL Y91L (antibody, V domains shown)
VH: B1 VH with Q30Y
VL: B1 VL with Y91L
B32: VL Y94S (antibody, V domains shown)
VH: B1 VH with Q30Y
VL: B1 VL with Y94S
B33: VL Y94R (antibody, V domains shown)
VH: B1 VH with Q30Y
VL: B1 VL with Y94R
B34: VH Y31L (antibody, V domains shown)
VH: B1 VH with Q30Y, Y31L
VL: B1 VL
B35: VL Y94H (antibody, V domains shown)
VH: B1 VH with Q30Y
VL: B1 VL with Y94H
B36: VH Y30T (antibody, V domains shown)
VH: B1 VH with Q30T
VL: B1 VL
B37: VH Y100bV (antibody, V domains shown)
VH: B1 VH with Q30Y, Y106V
VL: B1 VL
B38: VL S93R (antibody, V domains shown)
VH: B1 VH with Q30Y
VL: B1 VL with S93R
B39: VH Y30S (antibody, V domains shown)
VH: B1 VH with Q30S
VL: B1 VL
B40: VH Y30W (antibody, V domains shown)
VH: B1 VH with Q30W
VL: B1 VL
B41: VL S93I (antibody, V domains shown)
VH: B1 VH with Q30Y
VL: B1 VL with S93I
B42: VL S93E (antibody, V domains shown)
VH: B1 VH with Q30Y
VL: B1 VL with S93E
B43: VL Y94W (antibody, V domains shown)
VH: B1 VH with Q30Y
VL: B1 VL with Y94W
B44: VL Y94V (antibody, V domains shown)
VH: B1 VH with Q30Y
VL: B1 VL with Y94V
B45: VL S93V (antibody, V domains shown)
VH: B1 VH with Q30Y
VL: B1 VL with S93V
B46: VL S93D (antibody, V domains shown)
VH: B1 VH with Q30Y
VL: B1 VL with S93D
B47: VL Y91H (antibody, V domains shown)
VH: B1 VH with Q30Y
VL: B1 VL with Y91H
B48: VL S93K (antibody, V domains shown)
VH: B1 VH with Q30Y
VL: B1 VL with S93K
B49: VL Y91T (antibody, V domains shown)
VH: B1 VH with Q30Y
VL: B1 VL with Y91T

What follows are binders tested against GCGR extracellular domain (human, UniProt P47871) (assay: SPR).
Chain of GCGR extracellular domain (P47871 26-477): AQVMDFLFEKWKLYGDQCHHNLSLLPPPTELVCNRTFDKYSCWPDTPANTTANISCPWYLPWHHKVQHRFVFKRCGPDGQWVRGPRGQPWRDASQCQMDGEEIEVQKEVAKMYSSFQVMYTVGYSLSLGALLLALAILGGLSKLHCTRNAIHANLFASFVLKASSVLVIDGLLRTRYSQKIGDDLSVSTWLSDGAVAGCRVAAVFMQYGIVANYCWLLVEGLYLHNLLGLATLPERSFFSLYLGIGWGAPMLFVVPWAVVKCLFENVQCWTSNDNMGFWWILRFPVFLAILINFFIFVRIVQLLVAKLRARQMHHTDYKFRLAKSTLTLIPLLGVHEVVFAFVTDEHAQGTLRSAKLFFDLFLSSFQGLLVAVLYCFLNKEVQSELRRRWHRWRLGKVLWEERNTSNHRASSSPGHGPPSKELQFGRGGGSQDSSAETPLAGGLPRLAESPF

In order of rising Kd:
1. B38  0.766 nM
2. B26  0.962 nM
3. B42  0.968 nM
4. B37  1.08 nM
5. B19  1.23 nM
6. B20  1.27 nM
7. B46  1.3 nM
8. B33  1.41 nM
9. B29  1.69 nM
10. B45  1.74 nM
11. B5  1.85 nM
12. B15  1.92 nM
13. B3  2.05 nM
14. B8  2.08 nM
15. B24  2.08 nM
16. B32  2.08 nM
17. B17  2.18 nM
18. B2  2.23 nM
19. B41  2.28 nM
20. B12  2.31 nM
21. B13  2.36 nM
22. B6  2.38 nM
23. B49  2.42 nM
24. B44  2.46 nM
25. B43  2.55 nM
26. B47  2.82 nM
27. B48  2.91 nM
28. B14  3.02 nM
29. B35  3.02 nM
30. B30  3.42 nM
31. B10  3.54 nM
32. B31  4.2 nM
33. B23  4.63 nM
34. B7  5.54 nM
35. B11  5.59 nM
36. B40  6.44 nM
37. B27  6.68 nM
38. B25  6.94 nM
39. B28  17.3 nM
40. B18  20.2 nM
41. B21  21.3 nM
42. B1  23.4 nM
43. B36  24.8 nM
44. B4  110 nM
45. B22  194 nM
46. B39  261 nM
47. B9  363 nM
48. B16  406 nM
49. B34  2640 nM
